Test results taken from patent publication US20200223889A1 (Novo Nordisk, published 2020).
Positions of bridges follow the written chain, without caps; N, C: chain ends. Non-standard residues stand in square brackets, D forms with d. Hyp = O=C(O)[C@@H]1C[C@@H](O)CN1; Thz = O=C(O)[C@@H]1CSCN1; Aib = CC(C)(N)C(=O)O; Sar = CNCC(=O)O

Key:
[1] = target: T1, human melanocortin 4 receptor (human, UniProt P32245 1-332); test: cell-based or functional assay
[2] = target: human melanocortin 1 receptor (human, UniProt Q01726 1-317); test: cell-based or functional assay
Sequence of human melanocortin 1 receptor (Q01726 whole entry): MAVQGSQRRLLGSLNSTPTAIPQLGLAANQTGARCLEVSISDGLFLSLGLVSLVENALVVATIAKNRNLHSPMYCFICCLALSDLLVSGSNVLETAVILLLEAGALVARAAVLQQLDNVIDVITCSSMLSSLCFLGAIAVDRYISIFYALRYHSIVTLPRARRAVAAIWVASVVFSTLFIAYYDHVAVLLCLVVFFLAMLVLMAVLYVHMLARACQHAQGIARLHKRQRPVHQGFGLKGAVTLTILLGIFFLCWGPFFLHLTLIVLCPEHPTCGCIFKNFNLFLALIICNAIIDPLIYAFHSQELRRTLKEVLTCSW

[3] = target: T1, human melanocortin 4 receptor; test: competition with 125-NDP-α-MSH, BHK human MC4R membranes
Protocol: In order to assess the binding affinity of the selected compounds for the human MC4R competitive binding assays was performed with radiolabeled NDP-alpha MSH (¹²⁵NDP-α-MSH).
The assay was performed in 96-well filterplates (Unifilter) using BHK cells stably expressing the human MC4 receptor.
The BHK cell membranes were prepared from frozen or fresh cells that were homogenized in 20 mM HEPES pH 7.1, 5 mM MgCl₂, 1 mg/ml bacitracin (buffer 1) and centrifuged at 15000 rpm at 4° C., 10 min in a Sorvall RC 5B plus, SS-34 rotor. The supernatant was discarded, and the pellets were re-suspended in buffer 1, homogenized and centrifuged two more times. The final pellets were re-suspended in buffer 1 and the protein concentration was measured and adjusted with buffer 1 to 5 mg/ml and the membrane preparation was kept at −80° C. until assay. The assay was run on a dilution of this cell membrane suspension without any further preparation. The suspension was diluted to give maximally 10% specific binding, i.e. to approx. 50-100 fold dilution, optimized after each membrane preparation. The assay was performed in a total volume of 200 μl: 50 μl of cell suspension, 50 μl of ¹²⁵NDP-α-MSH (apx. […] in final concentration), 50 μl of test compound and 50 μl binding buffer were mixed and incubated for 2 h at 25° C. (binding buffer: 25 mM HEPES, pH 7.0, 1 mM CaCl₂), 1 mM MgSO₄, 1 mM EGTA, 0.005% Tween™ 20 and 0.1% HSA or, alternatively, 0.1% ovalbumin (Sigma; catalogue No. A-5503)). Test compounds were dissolved in 100% DMSO and diluted in binding buffer in a dose range from 1 μM to 0.001 nM. Radiolabelled ligand and membranes were diluted in binding buffer. The incubation was stopped by dilution with 8×100 μl ice-cold 0.9% NaCl. The radioactivity retained on the filters was counted using a Packard Topcounter. The data were analysed by non-linear regression analysis of binding curves, using the Windows™ program GraphPad™ Prism (GraphPad Software, USA).

T1 sequence (P32245 whole entry): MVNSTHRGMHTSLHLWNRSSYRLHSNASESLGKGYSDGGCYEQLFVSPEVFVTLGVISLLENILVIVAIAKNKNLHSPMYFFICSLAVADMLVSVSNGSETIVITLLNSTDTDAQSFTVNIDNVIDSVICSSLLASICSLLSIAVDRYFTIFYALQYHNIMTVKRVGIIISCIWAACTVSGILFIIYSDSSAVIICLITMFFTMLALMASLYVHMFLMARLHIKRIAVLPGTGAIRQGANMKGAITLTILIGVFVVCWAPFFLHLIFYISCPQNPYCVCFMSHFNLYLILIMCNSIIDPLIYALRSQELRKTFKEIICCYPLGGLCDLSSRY

B1: Chem. 77 (peptide)
peptide: cyclo(CKH[dF]HWCKKKKW)
modifications: disulfide 1-7
SMILES: NCCCC[C@@H]1NC(=O)[C@H](CCCCN)NC(=O)[C@H](CCCCN)NC(=O)[C@@H]2CSSC[C@H](NC(=O)[C@H](Cc3c[nH]c4ccccc34)NC(=O)[C@H](CCCCN)NC1=O)C(=O)N[C@@H](CCCCN)C(=O)N[C@@H](Cc1c[nH]cn1)C(=O)N[C@H](Cc1ccccc1)C(=O)N[C@@H](Cc1c[nH]cn1)C(=O)N[C@@H](Cc1c[nH]c3ccccc13)C(=O)N2
notes: also called c[c[Cys-Lys-His-D-Phe-His-Trp-Cys]-Lys-Lys-Lys-Lys-Trp]
- MC4R cAMP EC50 [1]: 0.46 nM
- MC1R cAMP EC50 [2]: 49.8 nM
- Ki [3]: 0.72 nM

B2: Chem. 84 (peptide)
peptide: cyclo(C[dK]H[dF]HWCAKKKW)
modifications: disulfide 1-7
SMILES: C[C@@H]1NC(=O)[C@@H]2CSSC[C@H](NC(=O)[C@H](Cc3c[nH]c4ccccc34)NC(=O)[C@H](CCCCN)NC(=O)[C@H](CCCCN)NC(=O)[C@H](CCCCN)NC1=O)C(=O)N[C@H](CCCCN)C(=O)N[C@@H](Cc1c[nH]cn1)C(=O)N[C@H](Cc1ccccc1)C(=O)N[C@@H](Cc1c[nH]cn1)C(=O)N[C@@H](Cc1c[nH]c3ccccc13)C(=O)N2
notes: also called c[c[Cys-D-Lys-His-D-Phe-His-Trp-Cys]-Ala-Lys-Lys-Lys-Trp]
- MC4R cAMP EC50 [1]: 0.59 nM
- MC1R cAMP EC50 [2]: 43.4 nM
- Ki [3]: 0.19 nM

B3: Chem. 78 (peptide)
peptide: cyclo(CKH[dF]HWCAKKKR)
modifications: disulfide 1-7
SMILES: C[C@@H]1NC(=O)[C@@H]2CSSC[C@H](NC(=O)[C@H](CCCNC(=N)N)NC(=O)[C@H](CCCCN)NC(=O)[C@H](CCCCN)NC(=O)[C@H](CCCCN)NC1=O)C(=O)N[C@@H](CCCCN)C(=O)N[C@@H](Cc1c[nH]cn1)C(=O)N[C@H](Cc1ccccc1)C(=O)N[C@@H](Cc1c[nH]cn1)C(=O)N[C@@H](Cc1c[nH]c3ccccc13)C(=O)N2
notes: also called c[c[Cys-Lys-His-D-Phe-His-Trp-Cys]-Ala-Lys-Lys-Lys-Arg]
- MC4R cAMP EC50 [1]: 0.04 nM
- MC1R cAMP EC50 [2]: 3.8 nM
- Ki [3]: 0.02 nM

B4: Chem. 96 (peptide)
peptide: cyclo(CPH[dF]HWCAHKKR)
modifications: disulfide 1-7
SMILES: C[C@@H]1NC(=O)[C@@H]2CSSC[C@H](NC(=O)[C@H](CCCNC(=N)N)NC(=O)[C@H](CCCCN)NC(=O)[C@H](CCCCN)NC(=O)[C@H](Cc3c[nH]cn3)NC1=O)C(=O)N1CCC[C@H]1C(=O)N[C@@H](Cc1c[nH]cn1)C(=O)N[C@H](Cc1ccccc1)C(=O)N[C@@H](Cc1c[nH]cn1)C(=O)N[C@@H](Cc1c[nH]c3ccccc13)C(=O)N2
notes: also called c[c[Cys-Pro-His-D-Phe-His-Trp-Cys]-Ala-His-Lys-Lys-Arg]
- MC4R cAMP EC50 [1]: 0.04 nM
- MC1R cAMP EC50 [2]: 57.7 nM
- Ki [3]: 0.04 nM

B5: Chem. 95 (peptide)
peptide: cyclo(CPH[dF]HWCAKKHR)
modifications: disulfide 1-7
SMILES: C[C@@H]1NC(=O)[C@@H]2CSSC[C@H](NC(=O)[C@H](CCCNC(=N)N)NC(=O)[C@H](Cc3c[nH]cn3)NC(=O)[C@H](CCCCN)NC(=O)[C@H](CCCCN)NC1=O)C(=O)N1CCC[C@H]1C(=O)N[C@@H](Cc1c[nH]cn1)C(=O)N[C@H](Cc1ccccc1)C(=O)N[C@@H](Cc1c[nH]cn1)C(=O)N[C@@H](Cc1c[nH]c3ccccc13)C(=O)N2
notes: also called c[c[Cys-Pro-His-D-Phe-His-Trp-Cys]-Ala-Lys-Lys-His-Arg]
- MC4R cAMP EC50 [1]: 0.22 nM
- MC1R cAMP EC50 [2]: 87.7 nM
- Ki [3]: 0.07 nM

B6: Chem. 61 (peptide)
peptide: cyclo(C[Aib]H[dF]HWCAKKKW)
modifications: disulfide 1-7
SMILES: C[C@@H]1NC(=O)[C@@H]2CSSC[C@H](NC(=O)[C@H](Cc3c[nH]c4ccccc34)NC(=O)[C@H](CCCCN)NC(=O)[C@H](CCCCN)NC(=O)[C@H](CCCCN)NC1=O)C(=O)NC(C)(C)C(=O)N[C@@H](Cc1c[nH]cn1)C(=O)N[C@H](Cc1ccccc1)C(=O)N[C@@H](Cc1c[nH]cn1)C(=O)N[C@@H](Cc1c[nH]c3ccccc13)C(=O)N2
notes: also called c[c[Cys-Aib-His-D-Phe-His-Trp-Cys]-Ala-Lys-Lys-Lys-Trp]
- MC4R cAMP EC50 [1]: 0.31 nM
- MC1R cAMP EC50 [2]: > 1 nM
- Ki [3]: 0.22 nM

B7: Chem. 110 (peptide)
peptide: cyclo(C[Thz]H[dF]HWCAKKAW)
modifications: disulfide 1-7
SMILES: C[C@@H]1NC(=O)[C@H](CCCCN)NC(=O)[C@H](CCCCN)NC(=O)[C@H](C)NC(=O)[C@@H]2CSSC[C@H](NC(=O)[C@H](Cc3c[nH]c4ccccc34)NC1=O)C(=O)N1CSC[C@H]1C(=O)N[C@@H](Cc1c[nH]cn1)C(=O)N[C@H](Cc1ccccc1)C(=O)N[C@@H](Cc1c[nH]cn1)C(=O)N[C@@H](Cc1c[nH]c3ccccc13)C(=O)N2
notes: also called c[c[Cys-THAZ-His-D-Phe-His-Trp-Cys]-Ala-Lys-Lys-Ala-Trp]
- MC4R cAMP EC50 [1]: 0.05 nM
- MC1R cAMP EC50 [2]: 63.3 nM
- Ki [3]: 0.09 nM

B8: Chem. 109 (peptide)
peptide: cyclo(C[Thz]H[dF]HWCAAKAW)
modifications: disulfide 1-7
SMILES: C[C@@H]1NC(=O)[C@H](C)NC(=O)[C@@H]2CSSC[C@H](NC(=O)[C@H](Cc3c[nH]c4ccccc34)NC(=O)[C@H](C)NC(=O)[C@H](CCCCN)NC1=O)C(=O)N1CSC[C@H]1C(=O)N[C@@H](Cc1c[nH]cn1)C(=O)N[C@H](Cc1ccccc1)C(=O)N[C@@H](Cc1c[nH]cn1)C(=O)N[C@@H](Cc1c[nH]c3ccccc13)C(=O)N2
notes: also called c[c[Cys-THAZ-His-D-Phe-His-Trp-Cys]-Ala-Ala-Lys-Ala-Trp]
- MC4R cAMP EC50 [1]: 0.15 nM
- MC1R cAMP EC50 [2]: > 7 nM
- Ki [3]: 0.3 nM

B9: Chem. 97 (peptide)
peptide: cyclo(C[Hyp]H[dF]HWCAKKKR)
modifications: disulfide 1-7
SMILES: C[C@@H]1NC(=O)[C@@H]2CSSC[C@H](NC(=O)[C@H](CCCNC(=N)N)NC(=O)[C@H](CCCCN)NC(=O)[C@H](CCCCN)NC(=O)[C@H](CCCCN)NC1=O)C(=O)N1C[C@H](O)C[C@H]1C(=O)N[C@@H](Cc1c[nH]cn1)C(=O)N[C@H](Cc1ccccc1)C(=O)N[C@@H](Cc1c[nH]cn1)C(=O)N[C@@H](Cc1c[nH]c3ccccc13)C(=O)N2
notes: also called c[c[Cys-Hyp-His-D-Phe-His-Trp-Cys]-Ala-Lys-Lys-Lys-Arg]
- MC4R cAMP EC50 [1]: 0.19 nM
- MC1R cAMP EC50 [2]: 23.1 nM
- Ki [3]: 0.05 nM

B10: Chem. 100 (peptide)
peptide: cyclo(C[Thz]H[dF]HWCAKKKR)
modifications: disulfide 1-7
SMILES: C[C@@H]1NC(=O)[C@@H]2CSSC[C@H](NC(=O)[C@H](CCCNC(=N)N)NC(=O)[C@H](CCCCN)NC(=O)[C@H](CCCCN)NC(=O)[C@H](CCCCN)NC1=O)C(=O)N1CSC[C@H]1C(=O)N[C@@H](Cc1c[nH]cn1)C(=O)N[C@H](Cc1ccccc1)C(=O)N[C@@H](Cc1c[nH]cn1)C(=O)N[C@@H](Cc1c[nH]c3ccccc13)C(=O)N2
notes: also called c[c[Cys-THAZ-His-D-Phe-His-Trp-Cys]-Ala-Lys-Lys-Lys-Arg]
- MC4R cAMP EC50 [1]: 0.02 nM
- MC1R cAMP EC50 [2]: 18.5 nM
- Ki [3]: 0.04 nM

B11: Chem. 74 (peptide)
peptide: cyclo(C[Sar]H[dF]HWCAKKKR)
modifications: disulfide 1-7
SMILES: C[C@@H]1NC(=O)[C@@H]2CSSC[C@H](NC(=O)[C@H](CCCNC(=N)N)NC(=O)[C@H](CCCCN)NC(=O)[C@H](CCCCN)NC(=O)[C@H](CCCCN)NC1=O)C(=O)N(C)CC(=O)N[C@@H](Cc1c[nH]cn1)C(=O)N[C@H](Cc1ccccc1)C(=O)N[C@@H](Cc1c[nH]cn1)C(=O)N[C@@H](Cc1c[nH]c3ccccc13)C(=O)N2
notes: also called c[c[Cys-Sar-His-D-Phe-His-Trp-Cys]-Ala-Lys-Lys-Lys-Arg]
- MC4R cAMP EC50 [1]: 0.29 nM
- MC1R cAMP EC50 [2]: > 5.5 nM
- Ki [3]: 0.08 nM

B12: Chem. 58 (peptide)
peptide: cyclo(CAH[dF]K(Ac)WCAK[dK]KW)
modifications: disulfide 1-7
SMILES: CC(=O)NCCCC[C@@H]1NC(=O)[C@@H](Cc2ccccc2)NC(=O)[C@H](Cc2c[nH]cn2)NC(=O)[C@H](C)NC(=O)[C@@H]2CSSC[C@H](NC(=O)[C@H](Cc3c[nH]c4ccccc34)NC1=O)C(=O)N[C@@H](C)C(=O)N[C@@H](CCCCN)C(=O)N[C@H](CCCCN)C(=O)N[C@@H](CCCCN)C(=O)N[C@@H](Cc1c[nH]c3ccccc13)C(=O)N2
notes: also called c[c[Cys-Ala-His-D-Phe-AcLys-Trp-Cys]-Ala-Lys-D-Lys-Lys-Trp]
- MC4R cAMP EC50 [1]: 0.11 nM
- MC1R cAMP EC50 [2]: 3.93 nM
- Ki [3]: 0.09 nM
